These results are taken from patent US20200199241A1 (Chugai, published 2020).

To fix the notation:
B1: IgG1-F241 (antibody)
heavy: QVQLQESGPGLVKPSETLSLTCAVSGHSISHDHAWSWVRQPPGEGLEWIGFISYSGITNYNPSLQGRVTISRDNSKNTLYLQMNSLRAEDTAVYYCARSLARTTAMDYWGEGTLVTVSSASTKGPSVFPLAPSSKSTSGGTAALGCLVKDYFPEPVTVSWNSGALTSGVHTFPAVLQSSGLYSLSSVVTVPSSSLGTQTYICNVNHKPSNTKVDKKVEPKSCDKTHTCPPCPAPELLGGPSVFLFPPKPKDTLYISRTPEVTCVVVDVSHEDPEVKFNWYVDGVEVHNAKTKPREEQYNSTYRVVSVLTVLHQDWLNGKEYKCKVSNKALPAPIEKTISKAKGQPREPQVYTLPPSRDELTKNQVSLTCLVKGFYPSDIAVEWESNGQPENNYKTTPPVLDSDGSFFLYSKLTVDKSRWQQGNVFSCSVGHEALHYHYTQKSLSLSP
light: not shown
notes: EU numbering; copies: 2 + 2
B2: IgG1-F299 (antibody)
heavy: B1 heavy with S241K, V310P, Q313A, G430Y
light: not shown
notes: EU numbering; copies: 2 + 2
B3: IgG1-F268 (antibody)
heavy: B1 heavy with P240A, G430F
light: not shown
notes: EU numbering; copies: 2 + 2
B4: IgG1-F275 (antibody)
heavy: B1 heavy with S241K, V310P, E384A, G430M
light: not shown
notes: EU numbering; copies: 2 + 2
B5: IgG1-F287 (antibody)
heavy: B1 heavy with V310P, E382A, E384A, G430F
light: not shown
notes: EU numbering; copies: 2 + 2
B6: IgG1-F283 (antibody)
heavy: B1 heavy with V310P, E384A, G430Y
light: not shown
notes: EU numbering; copies: 2 + 2
B7: IgG1-F297 (antibody)
heavy: B1 heavy with D314A, G430Y
light: not shown
notes: EU numbering; copies: 2 + 2
B8: IgG1-F286 (antibody)
heavy: B1 heavy with S241K, V310P, E384A, G430Y
light: not shown
notes: EU numbering; copies: 2 + 2
B9: IgG1-F245 (antibody)
heavy: B1 heavy with G430N
light: not shown
notes: EU numbering; copies: 2 + 2
B10: IgG1-F263 (antibody)
heavy: B1 heavy with T309Q, Q313H, G430M
light: not shown
notes: EU numbering; copies: 2 + 2
B11: IgG1-F300 (antibody)
heavy: B1 heavy with S241K, V310P, D314A, G430Y
light: not shown
notes: EU numbering; copies: 2 + 2
B12: IgG1-F256 (antibody)
heavy: B1 heavy with Y254W, T309Q, Q313A, G430Y
light: not shown
notes: EU numbering; copies: 2 + 2
B13: IgG1-F257 (antibody)
heavy: B1 heavy with T309A, G430Y
light: not shown
notes: EU numbering; copies: 2 + 2
B14: IgG1-F290 (antibody)
heavy: B1 heavy with T258E, E384A, G430Y
light: not shown
notes: EU numbering; copies: 2 + 2
B15: IgG1-F274 (antibody)
heavy: B1 heavy with E382A, E384A, G430F
light: not shown
notes: EU numbering; copies: 2 + 2
B16: IgG1-F289 (antibody)
heavy: B1 heavy with T258E, G430Y
light: not shown
notes: EU numbering; copies: 2 + 2
B17: IgG1-F296 (antibody)
heavy: B1 heavy with Q313A, G430Y
light: not shown
notes: EU numbering; copies: 2 + 2
B18: IgG1-F246 (antibody)
heavy: B1 heavy with G430P
light: not shown
notes: EU numbering; copies: 2 + 2
B19: IgG1-F270 (antibody)
heavy: B1 heavy with N327G, G430F
light: not shown
notes: EU numbering; copies: 2 + 2
B20: IgG1-F292 (antibody)
heavy: B1 heavy with S241K, V310P, E384A, G430I
light: not shown
notes: EU numbering; copies: 2 + 2
B21: IgG1-F261 (antibody)
heavy: B1 heavy with T309Q, Q313A, G430M
light: not shown
notes: EU numbering; copies: 2 + 2
B22: IgG1-F252 (antibody)
heavy: B1 heavy with G430W
light: not shown
notes: EU numbering; copies: 2 + 2
B23: IgG1-F298 (antibody)
heavy: B1 heavy with Q313A, D314A, G430Y
light: not shown
notes: EU numbering; copies: 2 + 2
B24: IgG1-F242 (antibody)
heavy: B1 heavy with G430H
light: not shown
notes: EU numbering; copies: 2 + 2
B25: IgG1-F278 (antibody)
heavy: B1 heavy with T309Q, V310P, E384A, G430M
light: not shown
notes: EU numbering; copies: 2 + 2
B26: IgG1-F282 (antibody)
heavy: B1 heavy with V310P, E384A, G430L
light: not shown
notes: EU numbering; copies: 2 + 2
B27: IgG1-F277 (antibody)
heavy: B1 heavy with S241K, V310P, G430Y
light: not shown
notes: EU numbering; copies: 2 + 2
B28: IgG1-F265 (antibody)
heavy: B1 heavy with E384A, G430Y
light: not shown
notes: EU numbering; copies: 2 + 2
B29: IgG1-F254 (antibody)
heavy: B1 heavy with Y254W, T309Q, G430Y
light: not shown
notes: EU numbering; copies: 2 + 2
B30: IgG1-F255 (antibody)
heavy: B1 heavy with Y254W, Q313A, G430Y
light: not shown
notes: EU numbering; copies: 2 + 2
B31: IgG1-F264 (antibody)
heavy: B1 heavy with E384A, G430M
light: not shown
notes: EU numbering; copies: 2 + 2
B32: IgG1-F258 (antibody)
heavy: B1 heavy with T309Q, G430Y
light: not shown
notes: EU numbering; copies: 2 + 2
B33: IgG1-F294 (antibody)
heavy: B1 heavy with S241K, V310P, G430F
light: not shown
notes: EU numbering; copies: 2 + 2
B34: IgG1-F243 (antibody)
heavy: B1 heavy with G430I
light: not shown
notes: EU numbering; copies: 2 + 2
B35: IgG1-F267 (antibody)
heavy: B1 heavy with T309Q, E384A, G430Y
light: not shown
notes: EU numbering; copies: 2 + 2
B36: IgG1-F280 (antibody)
heavy: B1 heavy with S241K, D272F, V310P, G430M
light: not shown
notes: EU numbering; copies: 2 + 2
B37: IgG1-F293 (antibody)
heavy: B1 heavy with V310P, E382A, E384A, G430I
light: not shown
notes: EU numbering; copies: 2 + 2
B38: IgG1-F279 (antibody)
heavy: B1 heavy with V310P, Q313H, E384A, G430M
light: not shown
notes: EU numbering; copies: 2 + 2
B39: IgG1-F250 (antibody)
heavy: B1 heavy with G430T
light: not shown
notes: EU numbering; copies: 2 + 2
B40: IgG1-F253 (antibody)
heavy: B1 heavy with G430Y
light: not shown
notes: EU numbering; copies: 2 + 2
B41: IgG1-F288 (antibody)
heavy: B1 heavy with T258E, E384A, G430M
light: not shown
notes: EU numbering; copies: 2 + 2
B42: IgG1-F247 (antibody)
heavy: B1 heavy with G430Q
light: not shown
notes: EU numbering; copies: 2 + 2
B43: IgG1-F244 (antibody)
heavy: B1 heavy with G430K
light: not shown
notes: EU numbering; copies: 2 + 2
B44: IgG1-F259 (antibody)
heavy: B1 heavy with D272F, G430M
light: not shown
notes: EU numbering; copies: 2 + 2
B45: IgG1-F249 (antibody)
heavy: B1 heavy with G430S
light: not shown
notes: EU numbering; copies: 2 + 2
B46: IgG1-F260 (antibody)
heavy: B1 heavy with T309A, Q313A, G430M
light: not shown
notes: EU numbering; copies: 2 + 2
B47: IgG1-F251 (antibody)
heavy: B1 heavy with G430V
light: not shown
notes: EU numbering; copies: 2 + 2
B48: IgG1-F262 (antibody)
heavy: B1 heavy with T309A, Q313H, G430M
light: not shown
notes: EU numbering; copies: 2 + 2
B49: IgG1-F266 (antibody)
heavy: B1 heavy with T309A, E384A, G430Y
light: not shown
notes: EU numbering; copies: 2 + 2
B50: IgG1-F295 (antibody)
heavy: B1 heavy with S241K, E382A, E384A, G430F
light: not shown
notes: EU numbering; copies: 2 + 2
B51: IgG1-F301 (antibody)
heavy: B1 heavy with S241K, V310P, Q313A, D314A, G430Y
light: not shown
notes: EU numbering; copies: 2 + 2
B52: IgG1-F284 (antibody)
heavy: B1 heavy with V310P, G430Y
light: not shown
notes: EU numbering; copies: 2 + 2
B53: IgG1-F269 (antibody)
heavy: B1 heavy with V307A, G430F
light: not shown
notes: EU numbering; copies: 2 + 2
B54: IgG1-F285 (antibody)
heavy: B1 heavy with V310P, G430F
light: not shown
notes: EU numbering; copies: 2 + 2
B55: IgG1-F272 (antibody)
heavy: B1 heavy with E382A, G430F
light: not shown
notes: EU numbering; copies: 2 + 2

Where a chain is given by its changes, count along the chain named.

The target in this experiment is T1, human FcRn (soluble human FcRn complexed with β2-microglobulin) (human, UniProt P61769 21-119, limits assumed).
T1 construct: also called hFcRn
T1 sequence (chain, as listed by the source limits assumed, chain 1 of 2): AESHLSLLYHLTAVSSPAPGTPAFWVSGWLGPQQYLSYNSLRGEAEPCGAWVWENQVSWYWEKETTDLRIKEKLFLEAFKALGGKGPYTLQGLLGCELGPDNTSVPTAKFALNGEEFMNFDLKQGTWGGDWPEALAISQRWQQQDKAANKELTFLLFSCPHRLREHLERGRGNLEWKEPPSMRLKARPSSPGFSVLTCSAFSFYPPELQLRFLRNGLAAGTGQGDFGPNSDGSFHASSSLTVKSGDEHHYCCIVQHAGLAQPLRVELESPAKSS
T1 sequence (P61769 21-119 limits assumed, chain 2 of 2): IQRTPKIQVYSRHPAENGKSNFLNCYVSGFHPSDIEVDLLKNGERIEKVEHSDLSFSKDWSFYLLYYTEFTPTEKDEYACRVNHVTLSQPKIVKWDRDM
Description: SPR, pH 7.0.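 Also: antibodies captured on a Protein L sensor chip with human FcRn injected as analyte, KD calculated from fitted association and dissociation rate constants.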
Regarding B1, the dissociation constant (Kd) (commonly the constant that tells how readily two partners part at equilibrium) stood at 1500 nM.
Molecule B2 registered a Kd of 94 nM.
Then B3, with 630 nM; and B4, with 42 nM.
Next, B5: 100 nM; B6: 100 nM; B7: 510 nM.
For B8, the affinity, expressed as Kd, was 120 nM.
The molecule B9 displayed a Kd of 470 nM.
Then B10, with 110 nM; and B11, with 83 nM.
B12 had a Kd of 54 nM.
B13 had a dissociation constant Kd of 500 nM.
Then B14, with 460 nM.
Then B15, with 760 nM; and B16, with 480 nM.
As to B17, the dissociation constant (Kd) amounted to 490 nM.
B18 registered a dissociation constant (Kd) of 1100 nM.
Then B19, with 660 nM; and B20, with 23 nM.
Next, B21: 84 nM.
The molecule B22 had a dissociation constant (Kd) of 1000 nM.
For the molecule B23, the dissociation constant (Kd) turned out to be 480 nM.
Turning to B24, the affinity, expressed as Kd, was 850 nM.
As for B25, the dissociation constant Kd worked out at 30 nM.
As to B26, the dissociation constant Kd was 29 nM.
Molecule B27 yielded a Kd of 130 nM.
In turn, B28 had a Kd of 680 nM.
In turn, B29 displayed a Kd of 75 nM.
Next, B30: 110 nM; B31: 280 nM.
As for B32, binding was put at a Kd of 320 nM.
For B33, the Kd worked out at 110 nM.
For the molecule B34, the Kd came out at 180 nM.
As to B35, the Kd is 320 nM.
B36 gave an equilibrium dissociation constant (Kd) of 41 nM.
Regarding B37, the dissociation constant (Kd) turned out to be 53 nM.
Consider B38, for which the equilibrium dissociation constant (Kd) stood at 61 nM.
For the molecule B39, the Kd was determined as 290 nM.
As to B40, the dissociation constant (Kd) was 710 nM.
Molecule B41 showed a Kd of 190 nM.
Take B42: the affinity, expressed as Kd, was 440 nM.
Then B43, with 1300 nM; and B44, with 280 nM.
In turn, B45 gave a dissociation constant (Kd) of 640 nM.
Regarding B46, the dissociation constant Kd is 130 nM.
For the molecule B47, the dissociation constant Kd was 190 nM.
B48 came in with a Kd of 190 nM.
On to B49, for which the equilibrium dissociation constant (Kd) turned out to be 470 nM.
Turning to B50, binding was characterised by a dissociation constant (Kd) of 680 nM.
The molecule B51 gave a dissociation constant (Kd) of 72 nM.
As for B52, the Kd stood at 100 nM.
Molecule B53 displayed a Kd of 520 nM.
Take B54: the dissociation constant (Kd) came out at 99 nM.
The molecule B55 registered a Kd of 680 nM.
